Data from the supplement of paper PMC12764529.
± gives the half width of the 95% confidence interval.

Experiments:
[1] = folding stability dG unfold from trypsin proteolysis; higher = more stable
How it was run: (§1)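 Unfolding free energy was derived, per protease or combined, by relating Bayesian-fitted K50 values from sequencing counts to a sequence-predicted unfolded-state K50 and a shared folded-state K50. The underlying digests exposed cysteine-free mini-proteins under 80 residues, in a PA-tagged cDNA display construct, to trypsin and chymotrypsin at 11 threefold-diluted concentrations and to a no-protease condition. A filter kept only designs with AlphaFold2 dimer inter-PAE above 15.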

[2] = folding stability dG unfold (combined trypsin and chymotrypsin); higher = more stable
How it was run: as §1

[3] = folding stability dG unfold from chymotrypsin proteolysis; higher = more stable
How it was run: as §1

Row | Sequence | folding stability dG unfold [1] [kcal/mol] | folding stability dG unfold [2] [kcal/mol] | folding stability dG unfold [3] [kcal/mol]
1 | SAGGPSHPLGPVALTLDPAASTLTVTLGDEVLTLPVPPGVTATATSYPDSVTVTLTFPDGTVVTVTLPLSAG [r5_21_JUSTAS] | 2.18 ± 0.063 | 2.89 ± 0.056 | 3.18 ± 0.034
2 | SAGGPTAPAGGPLLAPVPVVVPVPVTLTFPNLTPEQAEALAEYFRSLGAEVSYDSATGTLTVRDYRTSAGGS [r16_765_TrMRF] | 2.28 ± 0.061 | 3.587 ± 0.033 | 3.894 ± 0.014
3 | SAGGPTLKVKIYLPEEGKVIEFTFEAKKDEAEKIAKELEKLFPGYKLEGVKIFETPDSIELLAVASPESAGG [r13_196_TrMRF] | 3.26 ± 0.11 | 3.52 ± 0.069 | 3.65 ± 0.075
4 | SAGGPTVVLRVRDADGNLVTVTFDEETKRITVTVVRDGKTRTLTVDMTVDEAIARLRDLFPVEVELVPSAGG [r13_141_TrROS_Hall] | 2.42 ± 0.051 | 2.83 ± 0.041 | 3.05 ± 0.014
5 | SAGGPVFLGFEEALEFIEKAFENGEDVVVVARLPDGGLVVLEASGPDLDLRVVAVIPLPPPEEDPEKYSAGG [r13_839_TrMRF] | 1.5 ± 0.033 | 1.03 ± 0.091 | 0.268 ± 0.14
6 | SAGGPVIEVEKEYIPETGLVKVKVRDPSSDRELEIIAPSDLVDKIEKALENAPGTNSEAAVREALRDSAGGS [r8_484_TrMRF] | -0.935 ± 0.42 | 0.402 ± 0.15 | 0.921 ± 0.032
7 | SAGGPVIEVESLEELKKALELLKEGKEVVIRVRVRRTETLPDGRKRVEEREVVYRATVEDGKLTIEPLSAGG [r13_835_TrROS_Hall] | 2.93 ± 0.092 | 3.56 ± 0.12 | 3.91 ± 0.13
8 | SAGGPVLVLVEVEAGFDGRPRLRRLVLPVELRPDGTVDLDAVRRAVEELLPPDWRILRIEVVPPDAPFSAGG [r13_504_TrMRF] | 1.577 ± 0.011 | 1.58 ± 0.047 | 1.46 ± 0.045
9 | SAGGPVVEKIRELLKELGYEVEVTDVKEDYVEIKVKLPDKEITLPDGSKIERLENGELRIWIPKEDLSAGGS [r8_297_TrROS_Hall] | 2.98 ± 0.061 | 3.25 ± 0.083 | 3.4 ± 0.088
10 | SAGGRGEGTMNDPEGGRVYKSEYDPGDGQAEIEPKPVPPVPPIDAEELAEELEQKNGLPNDDVEDMLGSAGG [r13_824_TrROS] | -0.336 ± 0.084 | -0.309 ± 0.27 | -0.208 ± 0.44
11 | SAGGRIKDIEPIPPNDPPGQKLTIKFPDGGPIEIPMEKEPDENGPYYYKFKLQVNNGEIEVMFRIPNSAGGS [r8_360_TrROS] | 3.73 ± 0.25 | 5.18 ± 0.32 | 5.47 ± 0.16
12 | SAGGRKAKVTVTLPDGTVVELELEFKTEEEFEKAVKEKLEELFGKSIEEVPFVEKKVTVYDPEKGSKSESAG [r5_482_JUSTAS] | 1.13 ± 0.13 | 2.04 ± 0.31 | 2.18 ± 0.12
13 | SAGGRLVEAIREANKQGKPMSREEIKDKIKDAIREQNEENGGKIPEIEITDIHWNPDNGYVPIEIKVSAGGS [r16_365_TrROS] | -0.152 ± 0.2 | -0.561 ± 0.25 | -0.62 ± 0.27
14 | SAGGRRKIEFEVWIPMDKDGEITPNEIIEEAREIAEALPNFDNVEIEEISIQHHPDGWTRYNITIEVPSAGG [r13_462_TrROS] | 2.16 ± 0.16 | 2.31 ± 0.31 | 2.42 ± 0.058
15 | SAGGRVRLEERVLPDGRRVLVVHLPDRPLEVVIPLEGLALPPDQPVLVRGEGGVRELPIGDLLPEALFSAGG [r13_97_TrMRF] | 1.06 ± 0.011 | 0.88 ± 0.036 | 0.658 ± 0.053
16 | SAGGRYWKLTTPPDRPLRLVIEPVPLEDTPEEYGSRLYIPNTGKVYYFPLKYAQEILDLPWIERLEPVSAGG [r19_302_TrMRF] | 0.903 ± 0.096 | 0.664 ± 0.11 | 0.343 ± 0.21
17 | SAGGSAAEPVVLVFKTPESEALITVPPAFVQRVTVDPGGTVRRITVDLPDGTRTFLITDDSIFVDDSAGGSA [r15_598_TrMRF] | 0.753 ± 0.048 | 0.709 ± 0.068 | 0.581 ± 0.12
18 | SAGGSAAGAERVTYNYMIPNDGKWFMIRITIYRFEVKRDPEDNKYKLDLPPGDQLFINTEIMWFPNSAGGSA [r15_1040_TrROS] | 2.72 ± 0.12 | 3.73 ± 0.24 | 4.14 ± 0.076

Row | Sequence | folding stability dG unfold [1] [kcal/mol] | folding stability dG unfold [2] [kcal/mol] | folding stability dG unfold [3] [kcal/mol]
19 | SAGGSAAIPLEFELPNGERVTVYYDPETGLFTVEVEVRFGNEKGEPPEVRFRFEVDSLVDLLDFLASAGGSA [r15_31_TrMRF] | 2.51 ± 0.13 | 3.49 ± 0.093 | 3.88 ± 0.039
20 | SAGGSAAITFPSDKTATVLSEEYDPVKKTTTVKMKVGNKEVTATLSPDGTVTIKLPDGKEETYPVGSAGGSA [r15_111_JUSTAS] | 1.18 ± 0.057 | 1.35 ± 0.099 | 1.41 ± 0.016
21 | SAGGSAALELVEEVSEFYDPNTGKKTTLVVARKDGKPILILIPPSGATVYDASNGNKLFEIPPELLSAGGSA [r15_85_JUSTAS] | 0.61 ± 0.03 | 0.951 ± 0.065 | 1.16 ± 0.074
22 | SAGGSAALVLSREEFDGEVLLTLRDPETGEELLARLTYVPEENLVRLETTFPDGSTTTSVLPASALSAGGSA [r15_1055_JUSTAS] | 1.794 ± 0.017 | 1.75 ± 0.033 | 1.59 ± 0.059
23 | SAGGSADEELLEKAKEALKKAEPPKIVVLNLPLPSGKELKVTLDPTTNKFTAEFPDGGSKTFDFPESAGGSA [r15_977_JUSTAS] | 1.05 ± 0.11 | 0.858 ± 0.12 | 0.86 ± 0.096
24 | SAGGSADIKIIKLPEKNELVILVPGEFDENVPLVLHDEGGPSWEVVDARVERVGDDLIITAKVRKSSAGGSA [r15_838_TrMRF] | 0.594 ± 0.037 | 0.691 ± 0.099 | 0.701 ± 0.049
25 | SAGGSADKITVRVMPSPDGMYRVKIWHPGKKREYWMNPDDPDKMLEEFADEINPDRPIKVEVEPYKSAGGSA [r15_925_TrROS] | -0.919 ± 0.87 | 0.467 ± 0.18 | 0.913 ± 0.16
26 | SAGGSADPDDKEQKIKVEIETYRLEDNGMEVTRIELEGHGMPIYIARFPDGRMFIFTANGELEQIPSAGGSA [r15_617_TrROS] | 1.97 ± 0.14 | 2.41 ± 0.16 | 2.71 ± 0.059
27 | SAGGSADPDSPYVIRFNKPYTTFSPDGTPIELTEDVLKRFKSEEEAKKAKEELEKKGAKVEPVEGSSAGGSA [r15_117_JUSTAS] | -0.767 ± 0.41 | -0.159 ± 0.23 | 0.242 ± 0.31
28 | SAGGSADPEKVKLIEVEVEVHVEYDPEKGTYTVKAEFPDLTLSFEVPADSIHPDEKFKAPVLILVLSAGGSA [r15_190_TrMRF] | 2.29 ± 0.091 | 3.29 ± 0.24 | 3.7 ± 0.22
29 | SAGGSADPGKPIQIAIMIHIDPEPGRIEIPIYIMDDNRVRPVSIEFTPAGTLKIEVGNKEIEIPIKSAGGSA [r15_507_TrROS] | 2.46 ± 0.17 | 2.24 ± 0.16 | 2.01 ± 0.042
30 | SAGGSADRVTVTVTVRVRDPATGEWREVTETVTVPAPLTLEITLPPGWRLRLTLEDGELRLEVEPESAGGSA [r2_109_TrROS_Hall] | 3.1 ± 0.096 | 3.93 ± 0.063 | 4.26 ± 0.051
31 | SAGGSADTITIFFPGMPPEFAKEILEAILYEQGWKPKSVSTERHPEKGMHTIEVRFPNGRKITIMFSAGGSA [r15_958_TrROS] | 2.18 ± 0.06 | 2.75 ± 0.052 | 3.1 ± 0.016
32 | SAGGSADVKITEVHNPHRNPNGRPFFMVRIKWPDNGTHTIMMNPNDLDDLLAQLPPNWKIDEIHPISAGGSA [r15_339_TrROS] | 1.39 ± 0.025 | 1.57 ± 0.049 | 1.68 ± 0.055
33 | SAGGSAEEELLKAIKEALEKAKEGETVELEITLEDGSTLRITFDAENGKITVTLPNGEKLELTIEPSAGGSA [r15_977_TrROS_Hall] | 3.18 ± 0.19 | 4.23 ± 0.16 | 4.37 ± 0.18
34 | SAGGSAEEIARKLAEELAEEGEEVEVEVVEVEVEKVDGKEKVIRIRVKVKLPNGEELELELEIKLDELSAGG [r13_215_TrROS_Hall] | 2.38 ± 0.16 | 2.43 ± 0.24 | 2.18 ± 0.28
35 | SAGGSAEELLKKLKIVEVKEVDGKLYIEIEVDEPGLTVEEIKEILKELNLDVPIEVKEVVVVEEKESAGGSA [r15_599_TrROS_Hall] | 1.69 ± 0.14 | 1.98 ± 0.11 | 2.16 ± 0.062
36 | SAGGSAEIEIVIVVPEGASEEQVKALAKELKEELEKLLKVKDKDGKEKEVKIKKIKITVIVLPKEESAGGSA [r15_717_TrROS_Hall] | 2.37 ± 0.087 | 2.42 ± 0.2 | 2.56 ± 0.064
